Measurements from the DeepSol protein solubility set.

assay: soluble on expression in E. coli; label from the status in PepcDB or PDB records

Sequence | soluble on expression in E. coli
QIVPLFFQDVTNQPIEGMKPRSALEVEGRDVFIANGCVGCHSQMIRPLRAETERYGHYSVAGESVWDHPFLWGSKRTGPDLARIGGRYSDEWHRVHLNNPRDLVPASIMPAYPFLAGKHIDSTQTAKKLQVLRTLGTPYSDADITGAAAAVQGKTEMDALVAYLQGLGTLIKSKR | not soluble
QIYSARYSGVDVYEFIHSTGSIMKRKKDDWVNATHILKAANFAKAKRTRILEKEVLKETHEKVQGGFGKYQGTWVPLNIAKQLAEKFSVYDQLKPLFDF | soluble
QLRDFSSIIQTCSGNIQRISQATAQIKNLMSQLGTKQDSSKLQENLQQLQHSTNQLAKETNELLKELGSLPLPLSTSEQRQQRLQKERLMNDFSAALNNFQAVQRRVSEKEKESIAR | soluble
QNKNSVELDGGAIFKNDKLIDKMDKSETEAYNFMIGKVSSGSMEVLNPETNRDFISLWILNSKTTTKGKFYGGKFHVKKIVNVKVAFLESQSPITYNKYMQKQIEQNAEKNIINNCNKIFNKYKEKNEDIFNVRDVYENIYKKGSPDIIKNTVIDIEPHVQIERSGKASTF | not soluble
QPDPPCGGRLNSKDAGYITSPGYPQDYPSHQNCEWIVYAPEPNQKIVLNFNPHFEIEKHDCKYDFIEIRDGDSESADLLGKHCGNIAPPTIISSGSMLYIKFTSDYARQGAGFSLRYEIFKTGSEDCSKNFTSPNGTIESPGFPEKYPHNLDCTFTILAKPKMEIILQFLIFDLEHDPLQVGEGDCKYDWLDIWDGIPHVGPLIGKYCGTKTPSELRSSTGILSLTFHTDMAVAKDGFSARYYLVHQEPLENFQCNVPLGMESGRIANEQISASSTYSDGRWTPQQSRLHGDDNGWTPNLDSNKEYLQVDLRFLTMLTAIATQGAISRETQNGYYVKSYKLEVSTNGEDWMVYRHGKNHKVFQANNDATEVVLNKLHAPLLTRFVRIRPQTWHSGIALRLELFGCRVTDAPCSNMLGMLSGLIADSQISASSTQEYLWSPSAARLVSSRSGWFPRIPQAQPGEEWLQVDLGTPKTVKGVIIQGARGGDSITAVEARAFVRKFKVSYSLNGKDWEYIQDPRTQQPKLFEGNMHYDTPDIRRFDPIPAQYVRVYPERWSPAGIGMRLEVLGCDWTHHHHHH | soluble
QQFFFENDALGQSSTDFATNFLNLWDNNREQLLNLYSPQSQFSVSVDSTIPPSTVTDSDQTPAFGYYMSSSRNISKVSSEKSIQQRLSIGQESINSIFKTLPKTKHHLQEQPNEYSMETISYPQINGFVITLHGFFEETGKPELESNKKTGKNNYQKNRRYNHGYNSTSNNKLSKKSFDRTWVIVPMNNSVIIASDLLTVRAYSTGAWKTASIAIAQAAGS | soluble
QQFHWVNDGYADFDGFLAALSSRKRKAIRKERAQAQGFGGQIRELTGGDLRPEHWDAFWRFYQDTGARKWGSPYLTRAFFDIAHQTMADDMVLVLAERDGIPVAGALNFIGREALFGRYWGCVEHHPCLHFELCYYRAIDWAIAHGLARVEAGAQGEHKLARG | not soluble
QRGIINQRRERLVAADLMGAATVTASTVKYIVEKANRIASGAPATVAEGTKKPYVKYADFDVVTESLSKVAALAKFTDEMIEDYDFVASWINNNLVYDLSVVEEKQLINGDGRGSNIKGLLNREGIQTHKSAKQADWFNDLFKAKNKVSQATNLEADGIMINPVNYEALRLTKDGNGQYIAGGPFQGQYGNGNILIDPPLWGIKTVVSNAVPAGTAIVGAFRQGATVLRKGGVRVDSANTNADDFENNLVTLRAEERLGLMVPLPAAFVKVTLEETTEEL | not soluble
QRKISNIGAQSSMKLEDIKTPSASLTTTLAGRLAGVVAVQRTGEPGKDAADIWIRGIATPNTATPLILVDGVERAFNDIDPEDIESLTTLKDASATAVYGVRGANGVIIIKTKPGK | not soluble
QSRERLVKWLQDAYAMEKEAETMMAAMASRIEHYPELKRRIEQHVEETQQQSAGVQRCLELLNGSIPTAKGMLSSVLASMHAAGNSMMTDEVTKGVGISYAFEHLEIASYRALVVAARSAGEQEVAQICEDILQQEIEMAEWLIEHQEAIVVAFLE | not soluble
QSVLTQPPSVSAAPGQKVTISCSGSTSNIGNNYVSWYQQHPGKAPKLMIYDVSKRPSGVPDRFSGSKSGNSASLDISGLQSEDEADYYCAAWDDSLSEFLFGTGTKLTVLGQPKAAPSVTLFPPSSEELQANKATLVCLISDFYPGAVTVAWKADSSPVKAGVETTTPSKQSNNKYAASSYLSLTPEQWKSHKSYSCQVTHEGSTVEKTVAPTECS | soluble
QTSAVQQKLAALEKSSGGRLGVALIDTADNTQVLYRGDERFPMCSTSKVMAAAAVLKQSETQKQLLNQPVEIKPADLVNYNPIAEKHVNGTMTLAELSAAALQYSDNTAMNKLIAQLGGPGGVTAFARAIGDETFRLDRTEPTLNTAIPGDPRDTTTPRAMAQTLRQLTLGHALGETQRAQLVTWLKGNTTGAASIRAGLPTSWTAGDKTGSGDYGTTNDIAVIWPQGRAPLVLVTYFTQPQQNAESRRDVLASAARIIAEGL | soluble
QVGLVRSKNVMIISPKYVAIQERLLRELDKGVTLVPIEGGYRNAKGMLLMTVIREKDFPRLKEAILEIDEEAFLISMSASEVYGKGFSLKKVADSYGVEATNANNLQ | not soluble
RDHIILIGWNEKTNRLLKDLQLGAPSKTVVLIDESLTEGPLIENVHFIRGHAADDGTLKRANITEAESVMITADQYKSETDADMLSVLTLLSVKGLNPLAYCIVEILTDRFVTNAERAGANQIIGTSEFISRAMLQHYQVKLR | not soluble
RDIAQRITGATLRAPPCHEEVREAIRDAVGRTLVSNRKVGVAVSGGLDSTILCSELDSLGITDLDLISIQALGSQDGITDLSALELKGEAWKSWRLTASRFDPATYWRDLRRAIAILGEPTQMTSAPLYLGLAEKAAEAGVVVLLLGEGADELFCGYRSYLPMLSGWSLRDFLFRPLERAVCQRLFSGEIQARCAAALDVFTRALPEGDQWTQLRAAEMSHNLEPLLLRADHTLMRCSIEGRTPFLHGDVADLAFSLPIDSLLSPNQTKVFLRQAYFRDLPAHFSTEIKKPFRAPVATWFVGPLKAWLTEEFSRQEAVFACLGIEPGGLEHVLTKTAQGHARMAKVAFCLLTLGFWIDWL | not soluble
RDLKSEVKKRNIQLQFDYPEILSKILLYSNAGLSIKSSIERIVRQYEDEKKKNPKEYHYAYEELKMATVKMKSGVSEINAINQYGERCGLHNYIKLANIIEQNIRRGTGELSFALENELNRALVERKNTALKRGSEISTK | not soluble
RDLLEQSLPDDIEEEIEKIICSESMVKGVRRIRTRNIGNYYAVEADILMDGGLSVALSHAATQRVEKLLRGRYGQPTHIVIHVEPFS | not soluble
RFNLFNYREATLIADYGHNPDAMEALVCAIDHIPAKKRTVVISAAGDRRNEDIRLQTRILGDVFDEVVLFQDKCQRGRADGEVLGLLREGLENAKRVRKVSEIRGEFKAIDTALTNLEAGELCLILIDQ | not soluble
RGRGPEAAAQEEAEEVGRSGPGRRAAQRRSPGLAMLLASAVVVWEWLNEHGRWRPYSPAVSHHIEAVVRAGPRAGGSVVLGQVDSRLAPYIIDLQSMNQFRQDTGTLRPVRRNYYDPSSAPGKGVVWEWENDNGSWTPYDMEVGITIQHAYEKQHPWIDLTSIGFSYVIDFNTMGQINRQTQRQRRVRRRLDLIYPMVTGTLPKAQSWPVSPGPATSPPMSPCSCPQCVLVMSVKAAVVNGSTGPLQLPVTRKNMPPPGVVKLPPLPGSGAKPLDSTGTIRGPLKTAPSQVIRRQASSMPTGTTMGSPASPPGPNSKTGRVALATLNRTNLQRLAIAQSRVLIASGVPTVPVKNLNGSSPVNPALAGITGILMSAAGLPVCLTRPPKLVLHPPPVSKSEIKSIPGVSNTSRKTTKKQAKKGKTPEEVLKKYLQKVRHPPDEDCTICMERLTAPSGYKGPQPTVKPDLVGKLSRCGHVYHIYCLVAMYNNGNKDGSLQCPTCKTIYGVKTGTQPPGKMEYHLIPHSLPGHPDCKTIRIIYSIPPGIQGPEHPNPGKSFSARGFPRHCYLPDSEKGRKVLKLLLVAWDRRLIFAIGTSSTTGESDTVIWNEVHHKTEFGSNLTGHGYPDANYLDNVLAELAAQGISEDSTAQEKD | soluble
RIETDERDSTNRASFKCPVCSSTFTDLEANQLFDPMTGTFRCTFCHTEVEEDESAMPKKDAR | soluble
RKDMEMNINFNMSYQKNKLLSLSGEYNGMHMTASDITPIGSLYGAGQNGGDNNVVYQIVGQPLGVFYLPHCKGLKENELGGYSYDIEDLNDDGEIDFSDGGDRYIAGQATPKVTIGSNISFRYKSFDIAMQINGAFGHKIFNGTGLAYTNMSIFPDYNVLKGAPEKNIIDQNVSDYWLEKGDYVNIEHITIGYNIPMKSKAVKSLRLSAGISNLATITGYSGLTPMINSYVVSNTLGIDDKRTYPLYRTYSLGLSIQF | not soluble
RMNVFDEHHFRVILDYAHNADGVRCMSELASKLEVKGKRITVLAGPGDRRDEDIVNIAKAAAGHFDIYICKADDNRRGRGVNEVPELLASSLRAEGIDESQIYCISDEVEAINKGLELANTDDLLMIFGDAITRCWKQIINFNSGHEPEQE | not soluble
RNKVKYIELLGKELEILKGGDLNYQITIRGNDELAALAGEMDSMRRAIRSRQEEEELAHLANRGIVTAMSHDLRTPLTALMGYLDILSIEEDPGKKQKYLSVCRDKACQIKSLSDKLFEYFLVYSSDQDELHADEVNGAEFVGQIVEESLFDLENEGIEVARRAGEITCRLLVDVDLMRRVFGNLFSNILKYADRSHAVQAEYGETKDELVIRLRNSVAADASERESSNIGLKTCETILKRHGGTFLYQKDAGMFEAEVRIPCIRE | not soluble
RPDPQEIEAQRKAAIEAARQDSIAKAEAELLAARTQGATPDSIKQAAGYNQYGLLAAATAGAEEQVELANGKIALKLSTKGGAIREVLLRDYKTHDGKPLYLFREGESDFNLPLRTVDNRLVDTRDLYFSPISRTDSSVVMRLAVDSASYLDLAYVLLPDDYRLRMTVSGQNLQSLFPANMTMQDLEWSQRIRRQEKSWKFENQYTSIYYKYSGDEVDRLSDSKQEDKKTLEEPLHWVSFKDKYFASVLVCDSYFENNKLAQKTAAAGSDYLKNCTMSATFPLDVRSGTKARFTFFFGPLKYNMLRAYDKGMKAEDNLDLDHLVYLGASIFRWINRYMIIPASTFLQQYFSN | not soluble
RPDQVKLALDKPAYNDGDTAKVTVTPPAAGKGYLLIESSEGPLWWKEIDVPAEGKSYEIPLDKQWARHDLYVTALVIRPGERKANVTPKRAVGVLHLPLDRAQRKLALTVTAPEKMRPKQPLTLKVVAKNADGSVPEQVQVLVSAVDVGILNITRY | not soluble
RPHVVKVYSEDGACRSVEVAAGATARHVCEMLVQRAHALSDETWGLVECHPHLALERGLEDHESVVEVQAAWPVGGDSRFVFRKNFA | soluble
